This passage reports Kd results from PMC10279920, “Single-molecule visualization of Pif1 helicase translocation on single-stranded DNA” (The Journal of Biological Chemistry, 2023).

Residue numbers refer to the chain shown, from its start.

A word on the Kd: it is a measure of binding affinity in units of concentration.

Common to all, as to assay: EMSA; no ATP, 5 mM Mg2+; 35 mM Tris-HCl pH 7.5, 1 mM DTT, 5 mM MgCl2, 60 mM KCl, 0.1 mg/ml BSA, no ATP, 30 min at 30 C; 5 nM ssDNA
What all share (settings): protein: recombinant; tags: N-terminal superfolder GFP; Ni-NTA purified; label: 5' Alexa647
In general terms: In EMSA bound probe runs differently from free probe, usually more slowly.

One data set addresses T1, GFP-Pif1 K264A (Saccharomyces cerevisiae, UniProt P07271 40-859, K264A).
T1 sequence: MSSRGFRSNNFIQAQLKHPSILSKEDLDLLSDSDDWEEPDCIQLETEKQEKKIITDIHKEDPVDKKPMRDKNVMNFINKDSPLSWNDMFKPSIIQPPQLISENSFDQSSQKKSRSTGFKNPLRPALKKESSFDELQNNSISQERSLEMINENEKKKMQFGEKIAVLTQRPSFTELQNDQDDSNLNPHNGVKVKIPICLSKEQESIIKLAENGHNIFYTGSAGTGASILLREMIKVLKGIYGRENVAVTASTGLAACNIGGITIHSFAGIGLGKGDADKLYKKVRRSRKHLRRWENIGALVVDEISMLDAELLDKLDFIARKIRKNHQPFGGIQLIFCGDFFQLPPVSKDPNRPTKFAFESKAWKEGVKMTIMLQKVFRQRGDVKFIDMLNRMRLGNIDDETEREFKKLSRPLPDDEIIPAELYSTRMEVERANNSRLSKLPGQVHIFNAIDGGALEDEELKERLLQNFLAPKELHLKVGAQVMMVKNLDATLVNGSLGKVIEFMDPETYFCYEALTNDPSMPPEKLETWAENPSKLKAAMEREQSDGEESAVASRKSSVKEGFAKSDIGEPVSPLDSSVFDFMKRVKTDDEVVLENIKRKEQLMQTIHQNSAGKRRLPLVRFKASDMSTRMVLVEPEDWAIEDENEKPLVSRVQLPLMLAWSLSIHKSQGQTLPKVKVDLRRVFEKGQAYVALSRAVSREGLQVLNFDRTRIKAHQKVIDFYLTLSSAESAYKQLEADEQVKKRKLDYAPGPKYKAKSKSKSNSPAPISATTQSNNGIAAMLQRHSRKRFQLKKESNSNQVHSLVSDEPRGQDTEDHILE

The next data set has as its target T2, GFP-Pif1 K387A (Saccharomyces cerevisiae, UniProt P07271 40-859, K387A).
T2 sequence: T1 sequence with A225K, K348A

For another data set, the target named is T3, GFP-Pif1 K312A (Saccharomyces cerevisiae, UniProt P07271 40-859, K312A).
T3 sequence: T1 sequence with A225K, K273A

For GCTAGCAGTAGCCAGCATCGAACGTACGATCGGTAACGTA (ssDNA) [40-nt ssDNA], the Kd in the data set with GFP-Pif1 K264A came to 12.1 nM; with GFP-Pif1 K387A it was 29 nM; with GFP-Pif1 K312A, 40 nM.
